Measured values as given in patent US6340783.
One block for each substance: values may come before it.

What was measured:
[1] = biological target: beta-amyloid protein (BAP) residues 1-28, synthetic peptide (Homo sapiens (Human)) (UniProt P05067); experiment: BAP (1-28) affinity column after heparitinase/heparinase digestion
[2] = biological target: β/A4 (1-28) with three amino acid substitutions of the putative heparin binding domain (histidine, histidine and lysine changed to glycine) (UniProt P05067); experiment: affinity column chromatography of 125I-HSPG, mutated versus normal β/A4 (1-28) column
Chain of β/A4 (1-28) with three amino acid substitutions of the putative heparin binding domain (histidine, histidine and lysine changed to glycine) (P05067 672-699): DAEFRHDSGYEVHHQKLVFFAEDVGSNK

[3] = biological target: beta-amyloid protein (BAP) residues 1-28, synthetic peptide (Homo sapiens (Human)) (UniProt P05067); experiment: BAP (1-28) affinity column, no unlabeled competing ligand
[4] = biological target: beta-amyloid protein (BAP) residues 1-28, synthetic peptide (Homo sapiens (Human)) (UniProt P05067); experiment: competition with 125I-HSPG for binding to the BAP (1-28) affinity column

percent still able to bind in comparison to undigested controls [1]: 61%
Substance: heparitinase/heparinase-digested 125I-labeled HSPG, A0AAA9TDR0 23-4401

percent decrease in binding against normal β/A4 (1-28) [2]: 50 to 60%
Substance: high Mr heparan sulfate proteoglycan (HSPG) isolated from the culture media of bovine aortic endothelial cells (from UniProt A0AAA9TDR0 23-4401)

percent bound [3]: 21.6%
Substance: high Mr heparan sulfate proteoglycan (HSPG) isolated from the culture media of bovine aortic endothelial cells, A0AAA9TDR0 23-4401

IC50 [4]: < 1000 nM
Substance: low density heparan sulfate proteoglycan isolated from the mouse Engelbreth-Holm-Swarm (EHS) sarcoma (perlecan), Q05793 22-3707
